Data reported in patent US9994616B2, “c-Met protein agonist” (The University of Tokyo, priority 2013, dated 2018).

Tests used:
c-Met = biological target: T1, c-Met (Homo sapiens, UniProt P08581); test: Activity of dimeric peptide by Phospho-RTK array in EHMES-1 cells; type: cell-based; conditions: optimum concentration, 10 minutes, FIG. 4
T1 construct: endogenous in cells; host or cells: EHMES-1 (human mesothelioma)
Procedure: The optimum concentration of each dimeric peptide was added to cultured EHMES-1 cells derived from human mesothelioma and the resulting mixture was incubated for 10 minutes to stimulate the cells. As a control experiment, 2 nM recombinant human HGF protein was added, followed by incubation for 10 minutes.
The resulting cells were lyzed and the lysate thus obtained was analyzed using Phospho-RTK array (R&D Systems) to evaluate whether or not the c-Met of the cells was phosphorylated.

[1] = system: c-Met, Gab1, Akt, and Erk proteins; test: Activity of dimeric peptide by western blotting in EHMES-1 cells; type: cell-based, human; conditions: 10 minutes, FIG. 5
Procedure: The optimum concentration of each of the dimeric peptides was added to cultured EHMES-1 cells derived from human mesothelioma and the resulting mixture was incubated for 10 minutes to stimulate the cells. As a control experiment, 2 nM of a recombinant human HGF protein was added, followed by incubation for 10 minutes.
The cells were lysed and the resulting lysate was electrophoresed using a 10% modified polyacrylamide gel. After transcription of the protein thus separated to an Immobilon-P PVDF membrane (Millipore) and blocking with PVDF Blocking Reagent for Can Get Signal (TOYOBO), a primary antibody reaction of it was performed overnight at 4° C. in Can Get Signal Solution 1 (TOYOBO). As the antibody, anti-Met (Millipore, EP1454Y), anti-Phospho-Met Tyr1234/1235 (Cell Signaling Technology, D26), anti-Phospho-Met Tyr1349 (Millipore, 07-808), anti-Akt (Cell Signaling Technology, 11E7), anti-Phospho-Akt Thr308 (Cell Signaling Technology, D25E6), anti-Erk1/2 (Cell Signaling Technology, 137F5), anti-Phospho-Erk1/2 Thr202/Tyr204 (Cell Signaling Technology, D13.14.4E), anti-Gab1 (Cell Signaling Technology), or anti-Phospho-Gab1 Tyr 627 (Cell Signaling Technology, C32H2) was used. Then, a secondary antibody reaction was performed at room temperature for one hour in Can Get Signal Solution 2 (TOYOBO) by using an anti-rabbit antibody HRP conjugate. […]

T1 sequence (P08581 25-1390): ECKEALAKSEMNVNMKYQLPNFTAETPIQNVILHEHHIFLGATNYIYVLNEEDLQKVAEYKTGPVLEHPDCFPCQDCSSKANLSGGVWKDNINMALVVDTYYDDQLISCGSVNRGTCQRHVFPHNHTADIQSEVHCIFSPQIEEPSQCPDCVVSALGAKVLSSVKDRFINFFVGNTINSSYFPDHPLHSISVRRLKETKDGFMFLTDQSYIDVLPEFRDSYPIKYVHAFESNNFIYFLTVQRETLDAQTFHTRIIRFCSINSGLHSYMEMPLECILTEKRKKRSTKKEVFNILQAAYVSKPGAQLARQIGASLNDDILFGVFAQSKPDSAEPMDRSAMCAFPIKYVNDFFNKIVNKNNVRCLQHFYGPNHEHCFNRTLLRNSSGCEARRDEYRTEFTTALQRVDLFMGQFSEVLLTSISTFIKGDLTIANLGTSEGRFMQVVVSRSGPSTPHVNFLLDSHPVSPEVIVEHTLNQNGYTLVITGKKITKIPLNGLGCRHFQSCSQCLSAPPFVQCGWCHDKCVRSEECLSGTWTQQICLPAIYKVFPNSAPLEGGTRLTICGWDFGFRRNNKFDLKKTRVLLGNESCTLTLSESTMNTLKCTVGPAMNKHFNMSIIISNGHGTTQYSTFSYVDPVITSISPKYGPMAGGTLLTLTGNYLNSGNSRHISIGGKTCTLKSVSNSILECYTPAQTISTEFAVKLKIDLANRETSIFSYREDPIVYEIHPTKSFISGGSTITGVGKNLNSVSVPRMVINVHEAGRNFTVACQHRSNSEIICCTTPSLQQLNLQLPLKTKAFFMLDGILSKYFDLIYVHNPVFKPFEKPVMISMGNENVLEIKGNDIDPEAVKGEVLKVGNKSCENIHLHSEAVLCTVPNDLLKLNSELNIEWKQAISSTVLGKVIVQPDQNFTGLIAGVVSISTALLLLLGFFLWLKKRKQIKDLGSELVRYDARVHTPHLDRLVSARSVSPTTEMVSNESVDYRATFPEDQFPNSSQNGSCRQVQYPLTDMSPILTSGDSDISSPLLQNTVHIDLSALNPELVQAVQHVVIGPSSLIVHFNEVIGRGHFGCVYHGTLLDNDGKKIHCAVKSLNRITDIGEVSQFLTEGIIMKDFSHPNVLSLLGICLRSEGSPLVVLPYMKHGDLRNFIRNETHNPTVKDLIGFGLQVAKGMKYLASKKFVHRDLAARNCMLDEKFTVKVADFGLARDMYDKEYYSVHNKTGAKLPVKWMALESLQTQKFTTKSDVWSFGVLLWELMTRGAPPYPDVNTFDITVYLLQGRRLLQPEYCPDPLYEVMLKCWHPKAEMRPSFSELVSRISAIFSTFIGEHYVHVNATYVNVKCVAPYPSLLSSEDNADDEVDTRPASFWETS

For “HGF: recombinant human HGF protein, natural ligand of c-Met, control”, the “Autophosphorylation of c-Met (Phospho-RTK array)” value (c-Met) was “autophosphorylation is induced” and the “Phosphorylation of c-Met, Gab1, Akt, and Erk proteins (western blotting)” value [1] was “promote phosphorylation”.
